Article doi:10.1101/699223 (bioRxiv, 2019)
Numbering of substitutions follows the chain as printed. Names and notes keep the numbering of the source.

T1: human BBS2 R632P, c-Myc-tagged (human, UniProt Q9BXC9 1-721, R632P)
T1 sequence (looked up): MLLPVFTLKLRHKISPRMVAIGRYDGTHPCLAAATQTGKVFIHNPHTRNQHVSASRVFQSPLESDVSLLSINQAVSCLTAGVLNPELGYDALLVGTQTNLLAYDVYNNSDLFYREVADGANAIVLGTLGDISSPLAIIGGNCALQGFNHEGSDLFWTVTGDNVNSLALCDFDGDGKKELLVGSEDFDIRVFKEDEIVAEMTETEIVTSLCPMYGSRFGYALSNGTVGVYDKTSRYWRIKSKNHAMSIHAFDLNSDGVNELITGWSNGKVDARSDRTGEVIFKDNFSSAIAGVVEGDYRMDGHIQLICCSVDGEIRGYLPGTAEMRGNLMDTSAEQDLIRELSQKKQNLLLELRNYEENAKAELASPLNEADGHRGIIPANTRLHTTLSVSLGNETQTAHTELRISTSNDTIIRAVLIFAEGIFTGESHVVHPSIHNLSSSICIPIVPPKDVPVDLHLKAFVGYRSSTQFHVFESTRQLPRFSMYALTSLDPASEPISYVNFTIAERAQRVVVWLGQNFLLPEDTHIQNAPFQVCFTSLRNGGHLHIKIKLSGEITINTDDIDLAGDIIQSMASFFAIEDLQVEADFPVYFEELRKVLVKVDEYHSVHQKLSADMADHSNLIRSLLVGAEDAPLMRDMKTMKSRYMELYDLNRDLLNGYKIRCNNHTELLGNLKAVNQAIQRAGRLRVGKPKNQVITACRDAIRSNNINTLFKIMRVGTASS

T2: human BBS2 L349W, c-Myc-tagged (human, UniProt Q9BXC9 1-721, L349W)
T2 sequence (looked up): T1 sequence (looked up) with L349W, P632R

B1: human BBS9 (Bardet-Biedl syndrome protein 9), wild type, Flag-tagged (natural protein, UniProt Q3SYG4 1-887, looked up)
chain: MSLFKARDWWSTILGDKEEFDQGCLCLANVDNSGNGQDKIIVGSFMGYLRIFSPHPAKTGDGAQAEDLLLEVDLRDPVLQVEVGKFVSGTEMLHLAVLHSRKLCVYSVSGTLGNVEHGNQCQMKLMYEHNLQRTACNMTYGSFGGVKGRDLICIQSMDGMLMVFEQESYAFGRFLPGFLLPGPLAYSSRTDSFLTVSSCQQVESYKYQVLAFATDADKRQETEQQKLGSGKRLVVDWTLNIGEQALDICIVSFNQSASSVFVLGERNFFCLKDNGQIRFMKKLDWSPSCFLPYCSVSEGTINTLIGNHNNMLHIYQDVTLKWATQLPHIPVAVRVGCLHDLKGVIVTLSDDGHLQCSYLGTDPSLFQAPNVQSRELNYDELDVEMKELQKIIKDVNKSQGVWPMTEREDDLNVSVVVSPNFDSVSQATDVEVGTDLVPSVTVKVTLQNRVILQKAKLSVYVQPPLELTCDQFTFEFMTPDLTRTVSFSVYLKRSYTPSELEGNAVVSYSRPTDRNPDGIPRVIQCKFRLPLKLICLPGQPSKTASHKITIDTNKSPVSLLSLFPGFASQSDDDQVNVMGFHFLGGARITVLASKTSQRYRIQSEQFEDLWLITNELILRLQEYFEKQGVKDFACSFSGSIPLQEYFELIDHHFELRINGEKLEELLSERAVQFRAIQRRLLARFKDKTPAPLQHLDTLLDGTYKQVIALADAVEENQGNLFQSFTRLKSATHLVILLIALWQKLSADQVAILEAAFLPLQEDTQELGWEETVDAAISHLLKTCLSKSSKEQALNLNSQLNIPKDTSQLKKHITLLCDRLSKGGRLCLSTDAAAPQTMVMPGGCTTIPESDLEERSVEQDSTELFTNHRHLTAETPRPEVSPLQGVSE
B2: human BBS2 (Bardet-Biedl syndrome protein 2), wild type, HPC4- and c-Myc-tagged (natural protein, UniProt Q9BXC9 1-721, looked up)
chain: T1 sequence (looked up) with P632R
B3: human BBS9 G141R, Flag-tagged (natural protein, UniProt Q3SYG4 1-887, looked up)
chain: B1 chain with G141R
B4: human BBS7 (Bardet-Biedl syndrome protein 7), wild type, Flag-Strep-tagged (natural protein, UniProt Q8IWZ6 1-715, looked up)
chain: MDLILNRMDYLQVGVTSQKTMKLIPASRHRATQKVVIGDHDGVVMCFGMKKGEAAAVFKTLPGPKIARLELGGVINTPQEKIFIAAASEIRGFTKRGKQFLSFETNLTESIKAMHISGSDLFLSASYIYNHYCDCKDQHYYLSGDKINDVICLPVERLSRITPVLACQDRVLRVLQGSDVMYAVEVPGPPTVLALHNGNGGDSGEDLLFGTSDGKLALIQITTSKPVRKWEIQNEKKRGGILCIDSFDIVGDGVKDLLVGRDDGMVEVYSFDNANEPVLRFDQMLSESVTSIQGGCVGKDSYDEIVVSTYSGWVTGLTTEPIHKESGPGEELKINQEMQNKISSLRNELEHLQYKVLQERENYQQSSQSSKAKSAVPSFGINDKFTLNKDDASYSLILEVQTAIDNVLIQSDVPIDLLDVDKNSAVVSFSSCDSESNDNFLLATYRCQADTTRLELKIRSIEGQYGTLQAYVTPRIQPKTCQVRQYHIKPLSLHQRTHFIDHDRPMNTLTLTGQFSFAEVHSWVVFCLPEVPEKPPAGECVTFYFQNTFLDTQLESTYRKGEGVFKSDNISTISILKDVLSKEATKRKINLNISYEINEVSVKHTLKLIHPKLEYQLLLAKKVQLIDALKELQIHEGNTNFLIPEYHCILEEADHLQEEYKKQPAHLERLYGMITDLFIDKFKFKGTNVKTKVPLLLEILDSYDQNALISFFDAA

How the values were obtained:
[1] = biological target: T1, human BBS2 R632P, c-Myc-tagged; assay: co-IP
[2] = biological target: B1; assay: negative-stain EM reconstruction + cross-linking
[3] = biological target: B2; assay: co-IP
[4] = biological target: T2, human BBS2 L349W, c-Myc-tagged; assay: co-IP
[5] = biological target: B2; assay: pull-down

B1 was tested, and the “reduction in binding relative to WT” value [1] was 70%.

B2: binds [2].

With B3 the “reduction in binding relative to WT” value [3] was 70%.

B4 was tested, and the “decrease in binding relative to WT” value [4] was 30% and the binding result [5] was “binds”.
